The target in assay [1] is T1, Hepatocyte Growth Factor Receptor (HGFR, Met receptor), full length, endogenous in human tumor cells (GTL-16) (human, UniProt P08581 25-1390).
T1 construct: whole, on cells; The mature receptor is a disulfide-linked alpha/beta heterodimer cleaved from one precursor; also called HGF receptor
In words: immunoprecipitation of Met receptor from cell lysates, Western blot with anti-Met C-terminal antibody (FIG. 11A). As to the method: FIG. 11: The recombinant AntiMET-R binds with high affinity the extracellular domain of Met. (A) Western blot analysis of cell lysates containing the Met Receptor immunoprecipitated with the AntiMET-R derived from different sources (hybridoma or genetically modified carcinoma cell line). The immunoprecipitation was performed incubating Seph. Prot. G with cell culture supernatants from 1: Hybridoma producing unrelated MAb; 2 Hybridoma producing AntiMET-R MAb; 3: MDA-MB 435 cells infected with lentiviral vector carrying cDNAs for AntiMET-R MAb 4: MDA-MB 435 cells not infected. Samples were subjected to SDS-PAGE under reducing condition and the corresponding filters were probed with an anti-Met antibody directed against the c-Terminal tail of the receptor. (B) Binding assay of the AntiMET-R and the recombinant AntiMET-R to the extracellular domain of the Met Receptor. 96 wells plate coated with purified MET extracellular domain fused to the Fc domain derived from Human Ig (100 ng/well) was incubated with increasing concentrations of purified AntiMET-R or recombinant AntiMET-R (from 0 to 5.5 nM). […] To control the specificity of binding we performed the same assay using wells coated with Fc-Ron (a chimera protein generated fusing the Fc domain of Human Ig to the extracellular domain of the Ron receptor, a protein belonging to the Met receptor family).

For assay [2], the target named is T2, Decoy Met (aminoacids 1-932), soluble recombinant entire extracellular region of human Met, myc- and … (human, UniProt P08581 25-932).
T2 construct: range 25-932; Numbering follows GenBank X54559; also called myc-tagged Decoy Met; Met ectodomain
In words: immunoprecipitation from conditioned medium, Western blot with anti-myc. From the text: (§1) FIG. 18: AntiMET-R specifically recognizes an epitope located in the IPTs region. Conditioned media of MDA-MB-435 cells transduced with lentiviral vector particles encoding for myc-tagged Decoy Met, myc-tagged SEMA PSI and myc-tagged PSI IPT1-4 were immunoprecipitated with the antiMET-R antibody and detected by Western blot using a biotinylated anti-myc antibody (right panel). Equal amounts of conditioned media were loaded as a control for protein expression (left panel). CTRL: conditioned medium of MDA-MB-435 cells transduced with an empty lentiviral vector. Decoy Met: conditioned medium of MDA-MB-435 cells transduced with a lentiviral vector expressing the entire HGFR extracellular domain. PSI-IPT: conditioned medium of MDA-MB-435 cells transduced with a lentiviral vector expressing PSI, IPT-1, IPT-2, IPT-3, IPT-4 domains of the HGFR. SEMA-PSI: conditioned medium of MDA-MB-435 cells transduced with a lentiviral vector expressing Sema and PSI domains of the HGFR. On the right molecular weight in KD are shown.
(§2) Conditioned media of MDA-MB-435 cells transduced with myc-tagged Decoy Met, SEMA PSI and PSI IPT were immunoprecipitated with the AntiMET-R antibody and detected by Western blot using a biotinylated anti-myc antibody (FIG. 18, right panel). […]

For assay [3], the target named is T3, SEMA PSI (aminoacids 1-562), truncated form of Decoy Met containing the SEMA domain and the PSI region, myc- … (human, UniProt P08581 25-562).
T3 construct: range 25-562; also called myc-tagged SEMA PSI
The description is as above.
From the text: as §1, §2

For assay [4], the target named is T1, Hepatocyte Growth Factor Receptor …. As to the kind of experiment: flow cytometry on GTL-16 cells (50 ug/ml antibody) and immunofluorescence on fixed GTL-16 cells (2.5 ug/ml). As for the experimental part:
For Flow cytometry analysis, 10⁵ GTL-16 cells were detached with PBS-EDTA 0.025%, washed with PBS and incubated with 50 μg/ml of antiMet-R antibody or the same amount of isotype control mouse Ig for 15′ RT. After 2 washes with PBS, the cells were incubated with 15 μg/ml of FITC conjugated Goat anti-mouse Ig (Jackson Immunoresearch laboratories) for 15′ RT. Cells were than washed, re-suspended in PBS-5% BSA and analysed by flow cytometry (Becton Dickinson, Mountain View, Calif.). GTL-16 cells were fixed in methanol:aceton (3:1) for 5′ on ice then blocked with 2% goat serum in PBS for 30′ at RT. […] Analysis of the samples was performed with a fluorescence microscope (DM-IRB, Leica Microsystems).
GTL-16 cells, a human gastric carcinoma cell line, were incubated with the AntiMET-R antibody. […] Infact the mean of fluorescence intensity in cells labelled with the antiMet-R antibody was increased respect to ctrl cells (FIG. 20, panel A). GTL-16 cells were also incubated, after fixation, with the antiMet-R antibody to perform an immunofluoresce analysis.

From patent US20090285807A1 (METHERESIS TRANSLATIONAL RESEARCH, published 2009) come the findings set out here.

T1 sequence (P08581 25-1390): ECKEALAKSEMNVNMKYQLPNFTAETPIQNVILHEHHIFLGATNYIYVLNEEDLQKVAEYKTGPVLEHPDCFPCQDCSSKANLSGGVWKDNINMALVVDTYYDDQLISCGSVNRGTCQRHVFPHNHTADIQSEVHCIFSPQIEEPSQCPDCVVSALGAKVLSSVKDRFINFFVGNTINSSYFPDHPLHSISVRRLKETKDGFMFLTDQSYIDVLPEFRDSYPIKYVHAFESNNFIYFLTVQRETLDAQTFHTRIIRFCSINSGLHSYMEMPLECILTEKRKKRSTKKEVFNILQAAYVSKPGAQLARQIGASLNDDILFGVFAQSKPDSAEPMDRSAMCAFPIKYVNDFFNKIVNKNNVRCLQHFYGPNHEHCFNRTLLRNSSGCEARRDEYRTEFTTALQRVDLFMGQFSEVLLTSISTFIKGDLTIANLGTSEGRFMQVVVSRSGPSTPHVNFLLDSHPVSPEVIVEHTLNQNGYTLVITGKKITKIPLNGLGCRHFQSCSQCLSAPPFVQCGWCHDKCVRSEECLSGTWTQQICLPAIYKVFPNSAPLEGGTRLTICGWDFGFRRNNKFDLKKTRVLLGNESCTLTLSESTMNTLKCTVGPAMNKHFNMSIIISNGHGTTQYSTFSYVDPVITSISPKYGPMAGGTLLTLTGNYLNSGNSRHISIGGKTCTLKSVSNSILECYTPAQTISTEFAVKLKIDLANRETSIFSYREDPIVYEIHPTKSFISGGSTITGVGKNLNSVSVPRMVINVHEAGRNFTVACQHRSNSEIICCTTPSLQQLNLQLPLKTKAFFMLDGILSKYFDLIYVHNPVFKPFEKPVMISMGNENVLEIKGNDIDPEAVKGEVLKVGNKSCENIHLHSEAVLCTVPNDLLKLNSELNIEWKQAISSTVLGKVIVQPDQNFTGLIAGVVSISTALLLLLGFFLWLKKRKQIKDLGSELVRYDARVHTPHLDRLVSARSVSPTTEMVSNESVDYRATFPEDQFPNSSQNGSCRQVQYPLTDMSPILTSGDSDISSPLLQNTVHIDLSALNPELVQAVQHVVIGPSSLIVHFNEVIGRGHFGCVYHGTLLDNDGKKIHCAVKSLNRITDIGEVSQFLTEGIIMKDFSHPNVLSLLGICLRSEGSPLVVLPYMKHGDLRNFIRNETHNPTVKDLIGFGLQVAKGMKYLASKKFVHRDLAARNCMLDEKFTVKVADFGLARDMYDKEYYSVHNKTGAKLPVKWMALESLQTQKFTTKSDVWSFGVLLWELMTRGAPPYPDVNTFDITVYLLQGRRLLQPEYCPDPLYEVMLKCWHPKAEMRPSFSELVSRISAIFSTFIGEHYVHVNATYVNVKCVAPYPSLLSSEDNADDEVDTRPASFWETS
T2 sequence (P08581 25-932 limits assumed): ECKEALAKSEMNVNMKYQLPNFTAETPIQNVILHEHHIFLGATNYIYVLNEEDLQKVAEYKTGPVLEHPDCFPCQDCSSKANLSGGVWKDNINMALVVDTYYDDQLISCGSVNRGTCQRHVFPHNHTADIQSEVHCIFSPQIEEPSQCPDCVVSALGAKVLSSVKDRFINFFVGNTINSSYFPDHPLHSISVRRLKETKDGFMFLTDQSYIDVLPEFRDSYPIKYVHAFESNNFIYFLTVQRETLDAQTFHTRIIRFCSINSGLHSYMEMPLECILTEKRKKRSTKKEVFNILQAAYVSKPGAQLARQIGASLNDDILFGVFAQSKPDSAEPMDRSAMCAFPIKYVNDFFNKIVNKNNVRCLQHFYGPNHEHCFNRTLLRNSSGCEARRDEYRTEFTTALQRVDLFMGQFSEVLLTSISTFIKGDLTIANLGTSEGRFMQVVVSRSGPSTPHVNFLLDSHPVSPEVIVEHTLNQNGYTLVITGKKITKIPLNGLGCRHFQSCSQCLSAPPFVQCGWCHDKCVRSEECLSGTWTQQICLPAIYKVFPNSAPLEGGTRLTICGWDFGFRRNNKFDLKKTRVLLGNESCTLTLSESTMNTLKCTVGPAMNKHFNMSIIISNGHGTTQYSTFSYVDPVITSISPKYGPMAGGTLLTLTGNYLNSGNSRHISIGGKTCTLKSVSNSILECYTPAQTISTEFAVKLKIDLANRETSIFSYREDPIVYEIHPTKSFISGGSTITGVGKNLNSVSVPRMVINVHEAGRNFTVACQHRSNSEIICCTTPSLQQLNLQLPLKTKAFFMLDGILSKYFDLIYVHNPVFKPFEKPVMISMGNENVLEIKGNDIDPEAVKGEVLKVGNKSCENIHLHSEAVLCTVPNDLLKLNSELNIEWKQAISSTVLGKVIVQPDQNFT
T3 sequence (P08581 25-562 limits assumed): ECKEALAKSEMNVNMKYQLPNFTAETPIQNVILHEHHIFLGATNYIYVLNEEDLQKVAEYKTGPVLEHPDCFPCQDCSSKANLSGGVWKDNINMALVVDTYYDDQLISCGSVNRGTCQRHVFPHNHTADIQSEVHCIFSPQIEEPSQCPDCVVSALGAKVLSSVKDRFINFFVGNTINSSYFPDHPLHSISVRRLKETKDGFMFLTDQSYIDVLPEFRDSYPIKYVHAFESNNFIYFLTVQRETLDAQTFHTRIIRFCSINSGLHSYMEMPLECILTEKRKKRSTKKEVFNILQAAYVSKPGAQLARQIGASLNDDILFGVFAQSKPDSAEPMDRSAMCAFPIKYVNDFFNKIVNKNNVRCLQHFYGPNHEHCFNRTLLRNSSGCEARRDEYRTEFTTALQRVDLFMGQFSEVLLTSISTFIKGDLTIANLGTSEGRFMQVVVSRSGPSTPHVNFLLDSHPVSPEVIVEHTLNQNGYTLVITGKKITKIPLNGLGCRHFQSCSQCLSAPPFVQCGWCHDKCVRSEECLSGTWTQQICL

B1: recombinant AntiMET-R produced by carcinoma cell lines transduced with the bi-directional lentiviral vector carrying AntiMET-R cDNAs (antibody, mouse IgG2a, kappa, V domains shown)
VH: QVQLQQPGTELVKPGASVKLSCKASGYTFTSYWIHWVKQRPGQGLEWIGEINPSSGRTNYNEKFKNKVTVTVDKSSTTAYMQLSNLTSEDSAVYYCASRGYWGQGTTLTVSS
VL: DIVLTQSPASLAVSLGQRATISCKASQSVDYDGGSYMSWFQQRPGQPPKLLISAASNLESGIPARFSGSGSGTDFTLNIHPVEEEDVATYYCQQSYEDPLTFGAGTKLELKR
As for B1, the binding result in assay [1] is given as “binds”.

B2: AntiMET-R, anti-Met monoclonal antibody produced by the hybridoma cell line ICLC PD 05006 (antibody, mouse IgG2a, kappa, V domains shown)
VH: QVQLQQPGTELVKPGASVKLSCKASGYTFTSYWIHWVKQRPGQGLEWIGEINPSSGRTNYNEKFKNKVTVTVDKSSTTAYMQLSNLTSEDSAVYYCASRGYWGQGTTLTVSS
VL: DIVLTQSPASLAVSLGQRATISCKASQSVDYDGGSYMSWFQQRPGQPPKLLISAASNLESGIPARFSGSGSGTDFTLNIHPVEEEDVATYYCQQSYEDPLTFGAGTKLELKR
notes: Mouse monoclonal antibody from a hybridoma; They may include leader peptides; also called purified AntiMET-R
Take B2: the figures for the binding result in assay [2], in assay [3] and in assay [4] were “binds”, “no binding” and “binds”, respectively.
